Results taken from patent EP2966448B1, “METHOD FOR THE PREDICTION OR PROGNOSIS OF THE RESPONSE OF A HUMAN SUBJECT SUFFERING FROM CANCER TO TREATMENT WITH AN ANTAGONIST OF THE NK1 RECEPTOR” (priority 2013, dated 2014).

Molecular target: NK1 receptor (human) (UniProt P25103)
Assay: cell-based or functional assay

NK1 receptor (human), sequence (P25103 87-407): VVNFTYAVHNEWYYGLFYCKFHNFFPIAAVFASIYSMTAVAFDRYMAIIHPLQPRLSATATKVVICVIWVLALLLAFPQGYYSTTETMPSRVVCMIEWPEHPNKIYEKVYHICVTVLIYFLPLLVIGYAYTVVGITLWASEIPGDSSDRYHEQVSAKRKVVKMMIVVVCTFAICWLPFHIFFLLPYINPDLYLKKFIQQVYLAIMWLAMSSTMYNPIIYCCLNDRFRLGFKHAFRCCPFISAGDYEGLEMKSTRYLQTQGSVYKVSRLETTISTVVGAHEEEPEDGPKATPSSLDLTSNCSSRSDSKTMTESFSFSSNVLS

Percentage of inhibition of cell cultures; Lung carcinoma (non small cell lung carcinoma); cases with presence of ERK: 95% | Percentage of inhibition of cell cultures; Lung carcinoma (non small cell lung carcinoma); cases without presence of AKT: 25% | Percentage of inhibition of cell cultures; Lung carcinoma (non small cell lung carcinoma); cases without presence of ERK: 29% | Percentage of inhibition of cell cultures; Lung carcinoma (non small cell type); Group 1 (expression in less than 20% of the cells): 23% | Percentage of inhibition of cell cultures; Lung carcinoma (non small cell type); Group 2 (expression in 20-80% of the cells): 55% | Percentage of inhibition of cell cultures; Lung carcinoma (non small cell type); Group 3 (expression in more than 80% of the cells): 94% | Percentage of inhibition of cell cultures; Lung carcinoma (non small cell type); Intensity grade 1: 24% | Percentage of inhibition of cell cultures; Lung carcinoma (non small cell type); Intensity grade 2: 55% | Percentage of inhibition of cell cultures; Lung carcinoma (non small cell type); Intensity grade 3: 97% | Percentage of inhibition of cell cultures; Lung carcinoma (small cell lung carcinoma); cases with presence of AKT: 94% | Percentage of inhibition of cell cultures; Lung carcinoma (small cell lung carcinoma); cases with presence of ERK: 94% | Percentage of inhibition of cell cultures; Lung carcinoma (small cell lung carcinoma); cases without presence of AKT: 24% | Percentage of inhibition of cell cultures; Lung carcinoma (small cell lung carcinoma); cases without presence of ERK: 27% | Percentage of inhibition of cell cultures; Lung carcinoma (small cell type); Group 1 (expression in less than 20% of the cells): 24% | Percentage of inhibition of cell cultures; Lung carcinoma (small cell type); Group 2 (expression in 20-80% of the cells): 56% | Percentage of inhibition of cell cultures; Lung carcinoma (small cell type); Group 3 (expression in more than 80% of the cells): 95% | Percentage of inhibition of cell cultures; Lung carcinoma (small cell type); Intensity grade 1: 25% | Percentage of inhibition of cell cultures; Lung carcinoma (small cell type); Intensity grade 2: 54% | Percentage of inhibition of cell cultures; Lung carcinoma (small cell type); Intensity grade 3: 94% | Percentage of inhibition of cell cultures; Malignant Fibrous Histiocytoma.; Group 1 (expression in less than 20% of the cells): 22% | Percentage of inhibition of cell cultures; Malignant Fibrous Histiocytoma.; Group 2 (expression in 20-80% of the cells): 56% | Percentage of inhibition of cell cultures; Malignant Fibrous Histiocytoma.; Group 3 (expression in more than 80% of the cells): 96% | Percentage of inhibition of cell cultures; Malignant Fibrous Histiocytoma.; Intensity grade 1: 25% | Percentage of inhibition of cell cultures; Malignant Fibrous Histiocytoma.; Intensity grade 2: 55% | Percentage of inhibition of cell cultures; Malignant Fibrous Histiocytoma.; Intensity grade 3: 95% | Percentage of inhibition of cell cultures; Melanoma (Nodular Melanoma); cases with presence of AKT: 97% | Percentage of inhibition of cell cultures; Melanoma (Nodular Melanoma); cases with presence of ERK: 90% | Percentage of inhibition of cell cultures; Melanoma (Nodular Melanoma); cases without presence of AKT: 25% | Percentage of inhibition of cell cultures; Melanoma (Nodular Melanoma); cases without presence of ERK: 28% | Percentage of inhibition of cell cultures; Melanoma; Group 1 (expression in less than 20% of the cells): 24% | Percentage of inhibition of cell cultures; Melanoma; Group 2 (expression in 20-80% of the cells): 55% | Percentage of inhibition of cell cultures; Melanoma; Group 3 (expression in more than 80% of the cells): 96% | Percentage of inhibition of cell cultures; Melanoma; Intensity grade 1: 23% | Percentage of inhibition of cell cultures; Melanoma; Intensity grade 2: 56% | Percentage of inhibition of cell cultures; Melanoma; Intensity grade 3: 97% | Percentage of inhibition of cell cultures; Myeloma; Group 1 (expression in less than 20% of the cells): 23% | Percentage of inhibition of cell cultures; Myeloma; Group 2 (expression in 20-80% of the cells): 56% | Percentage of inhibition of cell cultures; Myeloma; Group 3 (expression in more than 80% of the cells): 96% | Percentage of inhibition of cell cultures; Myeloma; Intensity grade 1: 25% | Percentage of inhibition of cell cultures; Myeloma; Intensity grade 2: 56% | Percentage of inhibition of cell cultures; Myeloma; Intensity grade 3: 95% | Percentage of inhibition of cell cultures; Neuroblastoma; Group 1 (expression in less than 20% of the cells): 22% | Percentage of inhibition of cell cultures; Neuroblastoma; Group 2 (expression in 20-80% of the cells): 54% | Percentage of inhibition of cell cultures; Neuroblastoma; Group 3 (expression in more than 80% of the cells): 95% | Percentage of inhibition of cell cultures; Neuroblastoma; Intensity grade 1: 25% | Percentage of inhibition of cell cultures; Neuroblastoma; Intensity grade 2: 53% | Percentage of inhibition of cell cultures; Neuroblastoma; Intensity grade 3: 93% | Percentage of inhibition of cell cultures; Non Hodgkin Lymphoma B (diffuse B cell lymphoma); cases with presence of AKT: 95% | Percentage of inhibition of cell cultures; Non Hodgkin Lymphoma B (diffuse B cell lymphoma); cases with presence of ERK: 98% | Percentage of inhibition of cell cultures; Non Hodgkin Lymphoma B (diffuse B cell lymphoma); cases without presence of AKT: 24% | Percentage of inhibition of cell cultures; Non Hodgkin Lymphoma B (diffuse B cell lymphoma); cases without presence of ERK: 29% | Percentage of inhibition of cell cultures; Non Hodgkin Lymphoma B; Group 1 (expression in less than 20% of the cells): 23% | Percentage of inhibition of cell cultures; Non Hodgkin Lymphoma B; Group 2 (expression in 20-80% of the cells): 54% | Percentage of inhibition of cell cultures; Non Hodgkin Lymphoma B; Group 3 (expression in more than 80% of the cells): 96% | Percentage of inhibition of cell cultures; Non Hodgkin Lymphoma B; Intensity grade 1: 26% | Percentage of inhibition of cell cultures; Non Hodgkin Lymphoma B; Intensity grade 2: 55% | Percentage of inhibition of cell cultures; Non Hodgkin Lymphoma B; Intensity grade 3: 96% | Percentage of inhibition of cell cultures; Non Hodgkin Lymphoma T (diffuse T cell lymphoma); cases with presence of AKT: 94% | Percentage of inhibition of cell cultures; Non Hodgkin Lymphoma T (diffuse T cell lymphoma); cases with presence of ERK: 97% | Percentage of inhibition of cell cultures; Non Hodgkin Lymphoma T (diffuse T cell lymphoma); cases without presence of AKT: 25% | Percentage of inhibition of cell cultures; Non Hodgkin Lymphoma T (diffuse T cell lymphoma); cases without presence of ERK: 27% | Percentage of inhibition of cell cultures; Non Hodgkin Lymphoma T; Group 1 (expression in less than 20% of the cells): 23% | Percentage of inhibition of cell cultures; Non Hodgkin Lymphoma T; Group 2 (expression in 20-80% of the cells): 55% | Percentage of inhibition of cell cultures; Non Hodgkin Lymphoma T; Group 3 (expression in more than 80% of the cells): 96% | Percentage of inhibition of cell cultures; Non Hodgkin Lymphoma T; Intensity grade 1: 27% | Percentage of inhibition of cell cultures; Non Hodgkin Lymphoma T; Intensity grade 2: 56% | Percentage of inhibition of cell cultures; Non Hodgkin Lymphoma T; Intensity grade 3: 95% | Percentage of inhibition of cell cultures; Ovarian carcinoma (Adenocarcinoma); cases with presence of AKT: 95% | Percentage of inhibition of cell cultures; Ovarian carcinoma (Adenocarcinoma); cases with presence of ERK: 96% | Percentage of inhibition of cell cultures; Ovarian carcinoma (Adenocarcinoma); cases without presence of AKT: 24% | Percentage of inhibition of cell cultures; Ovarian carcinoma (Adenocarcinoma); cases without presence of ERK: 24% | Percentage of inhibition of cell cultures; Ovarian carcinoma; Group 1 (expression in less than 20% of the cells): 24% | Percentage of inhibition of cell cultures; Ovarian carcinoma; Group 2 (expression in 20-80% of the cells): 55% | Percentage of inhibition of cell cultures; Ovarian carcinoma; Group 3 (expression in more than 80% of the cells): 97% | Percentage of inhibition of cell cultures; Ovarian carcinoma; Intensity grade 1: 23% | Percentage of inhibition of cell cultures; Ovarian carcinoma; Intensity grade 2: 54% | Percentage of inhibition of cell cultures; Ovarian carcinoma; Intensity grade 3: 96% | Percentage of inhibition of cell cultures; Pancreatic carcinoma (Adenocarcinoma); cases with presence of AKT: 95% | Percentage of inhibition of cell cultures; Pancreatic carcinoma (Adenocarcinoma); cases with presence of ERK: 94% | Percentage of inhibition of cell cultures; Pancreatic carcinoma (Adenocarcinoma); cases without presence of AKT: 94% | Percentage of inhibition of cell cultures; Pancreatic carcinoma (Adenocarcinoma); cases without presence of ERK: 94% | Percentage of inhibition of cell cultures; Pancreatic carcinoma; Group 1 (expression in less than 20% of the cells): 23% | Percentage of inhibition of cell cultures; Pancreatic carcinoma; Group 2 (expression in 20-80% of the cells): 53% | Percentage of inhibition of cell cultures; Pancreatic carcinoma; Group 3 (expression in more than 80% of the cells): 96% | Percentage of inhibition of cell cultures; Pancreatic carcinoma; Intensity grade 1: 22% | Percentage of inhibition of cell cultures; Pancreatic carcinoma; Intensity grade 2: 54% | Percentage of inhibition of cell cultures; Pancreatic carcinoma; Intensity grade 3: 93% | Percentage of inhibition of cell cultures; Prostate carcinoma; Group 1 (expression in less than 20% of the cells): 23% | Percentage of inhibition of cell cultures; Prostate carcinoma; Group 2 (expression in 20-80% of the cells): 57% | Percentage of inhibition of cell cultures; Prostate carcinoma; Group 3 (expression in more than 80% of the cells): 96% | Percentage of inhibition of cell cultures; Prostate carcinoma; Intensity grade 1: 24% | Percentage of inhibition of cell cultures; Prostate carcinoma; Intensity grade 2: 56% | Percentage of inhibition of cell cultures; Prostate carcinoma; Intensity grade 3: 93% | Percentage of inhibition of cell cultures; Prostate carcinoma; cases with presence of AKT: 90% | Percentage of inhibition of cell cultures; Prostate carcinoma; cases with presence of ERK: 90% | Percentage of inhibition of cell cultures; Prostate carcinoma; cases without presence of AKT: 26% | Percentage of inhibition of cell cultures; Prostate carcinoma; cases without presence of ERK: 27% | Percentage of inhibition of cell cultures; Renal cell carcinoma (clear cell renal cell carcinoma); cases with presence of AKT: 94% | Percentage of inhibition of cell cultures; Renal cell carcinoma (clear cell renal cell carcinoma); cases with presence of ERK: 95% | Percentage of inhibition of cell cultures; Renal cell carcinoma (clear cell renal cell carcinoma); cases without presence of AKT: 34% | Percentage of inhibition of cell cultures; Renal cell carcinoma (clear cell renal cell carcinoma); cases without presence of ERK: 32% | Percentage of inhibition of cell cultures; Renal cell carcinoma; Group 1 (expression in less than 20% of the cells): 22% | Percentage of inhibition of cell cultures; Renal cell carcinoma; Group 2 (expression in 20-80% of the cells): 52% | Percentage of inhibition of cell cultures; Renal cell carcinoma; Group 3 (expression in more than 80% of the cells): 94% | Percentage of inhibition of cell cultures; Renal cell carcinoma; Intensity grade 1: 23% | Percentage of inhibition of cell cultures; Renal cell carcinoma; Intensity grade 2: 53% | Percentage of inhibition of cell cultures; Renal cell carcinoma; Intensity grade 3: 97% | Percentage of inhibition of cell cultures; Thyroid carcinoma (follicular carcinoma); cases with presence of AKT: 96% | Percentage of inhibition of cell cultures; Thyroid carcinoma (follicular carcinoma); cases with presence of ERK: 96% | Percentage of inhibition of cell cultures; Thyroid carcinoma (follicular carcinoma); cases without presence of AKT: 24% | Percentage of inhibition of cell cultures; Thyroid carcinoma (follicular carcinoma); cases without presence of ERK: 26% | Percentage of inhibition of cell cultures; Thyroid carcinoma (folliculary type); Group 1 (expression in less than 20% of the cells): 25% | Percentage of inhibition of cell cultures; Thyroid carcinoma (folliculary type); Group 2 (expression in 20-80% of the cells): 54% | Percentage of inhibition of cell cultures; Thyroid carcinoma (folliculary type); Group 3 (expression in more than 80% of the cells): 96% | Percentage of inhibition of cell cultures; Thyroid carcinoma (folliculary type); Intensity grade 1: 26% | Percentage of inhibition of cell cultures; Thyroid carcinoma (folliculary type); Intensity grade 2: 53% | Percentage of inhibition of cell cultures; Thyroid carcinoma (folliculary type); Intensity grade 3: 95% | Percentage of inhibition of cell cultures; Thyroid carcinoma (papillary carcinoma); cases with presence of AKT: 89% | Percentage of inhibition of cell cultures; Thyroid carcinoma (papillary carcinoma); cases with presence of ERK: 89% | Percentage of inhibition of cell cultures; Thyroid carcinoma (papillary carcinoma); cases without presence of AKT: 24% | Percentage of inhibition of cell cultures; Thyroid carcinoma (papillary carcinoma); cases without presence of ERK: 27% | Percentage of inhibition of cell cultures; Thyroid carcinoma (papillary type); Group 1 (expression in less than 20% of the cells): 22% | Percentage of inhibition of cell cultures; Thyroid carcinoma (papillary type); Group 2 (expression in 20-80% of the cells): 53% | Percentage of inhibition of cell cultures; Thyroid carcinoma (papillary type); Group 3 (expression in more than 80% of the cells): 94% | Percentage of inhibition of cell cultures; Thyroid carcinoma (papillary type); Intensity grade 1: 24% | Percentage of inhibition of cell cultures; Thyroid carcinoma (papillary type); Intensity grade 2: 56% | Percentage of inhibition of cell cultures; Thyroid carcinoma (papillary type); Intensity grade 3: 94% | Percentage of inhibition of cell cultures; Undifferentiated Pleomorphic Sarcoma (malignant fibrous histiocytoma grade 3); cases with presence of AKT: 90% | Percentage of inhibition of cell cultures; Undifferentiated Pleomorphic Sarcoma (malignant fibrous histiocytoma grade 3); cases with presence of ERK: 90% | Percentage of inhibition of cell cultures; Undifferentiated Pleomorphic Sarcoma (malignant fibrous histiocytoma grade 3); cases without presence of AKT: 25% | Percentage of inhibition of cell cultures; Undifferentiated Pleomorphic Sarcoma (malignant fibrous histiocytoma grade 3); cases without presence of ERK: 27% | Percentage of inhibition of cell cultures; Urinary bladder carcinoma (transitional cell carcinoma); cases with presence of AKT: 91% | Percentage of inhibition of cell cultures; Urinary bladder carcinoma (transitional cell carcinoma); cases with presence of ERK: 88% | Percentage of inhibition of cell cultures; Urinary bladder carcinoma (transitional cell carcinoma); cases without presence of AKT: 25% | Percentage of inhibition of cell cultures; Urinary bladder carcinoma (transitional cell carcinoma); cases without presence of ERK: 28% | Percentage of inhibition of cell cultures; Urinary bladder carcinoma; Group 1 (expression in less than 20% of the cells): 23% | Percentage of inhibition of cell cultures; Urinary bladder carcinoma; Group 2 (expression in 20-80% of the cells): 54% | Percentage of inhibition of cell cultures; Urinary bladder carcinoma; Group 3 (expression in more than 80% of the cells): 95% | Percentage of inhibition of cell cultures; Urinary bladder carcinoma; Intensity grade 1: 25% | Percentage of inhibition of cell cultures; Urinary bladder carcinoma; Intensity grade 2: 55% | Percentage of inhibition of cell cultures; Urinary bladder carcinoma; Intensity grade 3: 96%
Substance: antibody against NK1 receptor (Sigma-Aldrich, catalogue number S8305)
